The values below come from patent US20210139568A1 (AXON NEUROSCIENCE, published 2021).

Where no end group is shown, it is not given here. [ ]: non-standard residue; d: D form. pT = C[C@@H](OP(=O)(O)O)[C@H](N)C(=O)O

For assay [1], the target named is T1, monoclonal antibody DC2E7.
T1 construct: also called DC217 (apparent misprint)
As to the kind of experiment: competition ELISA, peptide pre-incubated with DC2E7. As to the method:
In order to examine the effect of residues in the region of DC2E7 epitope on antibody binding, synthetic peptides of different lengths carrying different phospho-sites were analyzed in competitive ELISA. […] Each synthetized peptide contained phospho-site(s) located around the residue Thr217, except of unphosphorylated peptide tau 201-229 (used as negative control).
ELISA plates (Nunc Medisorp, Thermo Scientific, Denmark) were coated overnight at 37° C. with 50 μl/well of PHF-tau, diluted 200× in PBS. The coated plates were washed 5 times with PBS/Tween 20 (0.05% v/v), and blocked with PBS/Tween 20 for 1 h at 25° C. Each of the peptides was separately dissolved in PBS at a final concentration of 1 mM. Serial dilutions (2.5×) of peptides in PBS/Tween 20 were prepared in polypropylene microtiter plates with conical well bottom (Greiner) within the concentration range of 200 μM; 80 μM; 32 μM; 12.8 μM; 5.12 μM; 2.048 μM; 0.8192 μM; 0.32768 μM). The monoclonal antibody DC2E7 was diluted to a concentration of 0.6 μg/ml in PBS and 60 μl of this diluted antibody was added into each well to serial dilution of peptides resulting in 120 μl/well of mixture. The antibody/peptide mixtures were incubated for 1 hr at 25° C. on a rotating platform set to 230 rpm.
(In general: ELISA stands for enzyme-linked immunosorbent assay.)

The target in assay [2] is T2, monoclonal antibody DC2E2.
T2 construct: Used as hybridoma supernatant or Protein G purified; biotinylated as detector in the digital ELISA
As to the kind of experiment: competition ELISA, peptide pre-incubated with DC2E2, plates coated with tau 1-242. As to the method:
(§1) The plates were washed 4 times with PBS/Tween 20 (0.1% v/v), and blocked with PBS/Tween 20 for 2 h at 25° C. Peptides were separately dissolved in PBS at a final concentration of 5 mM. Serial dilutions (2,5-fold) of the peptides in PBS/Tween 20 were prepared in polypropylene plates with conical well bottom (Greiner, #651201) (concentration range 200 μM, 32 μM, 12.8 μM, 5.1 μM, 2 μM, 0.8 μM, and 0.3 μM). 60 μl of each dilution were added per well. Purified DC2E2 was diluted to a concentration of 0.6 μg/ml in PBS/Tween 20 and 60 μl of this diluted antibody was mixed with each serial dilution of peptides resulting in 120 μl mixtures with […] of antibody/60μl containing each respective test peptide at a concentration of 200 μM, 32 μM, 12.8 μM, 5.1 μM, 2 μM, 0.8 μM, and 0.3 μM. The antibody/peptide mixtures were incubated for 1 hr at 25° C. on a rotating platform set to 250 rpm. […] The plates were washed 4× times with PBS/Tween 20 and incubated for 1 hr at 25° C. on a rotating platform (set to 250 rpm) with 50 μl of Polyclonal Goat Anti-Mouse Immunoglobulins/HRP (Dako, #P0447) diluted 1:1000 in PBS/Tween 20. The plates were washed 4× times with PBS/Tween and then incubated with 50 μl/well of TMB one solution (Kem-En-Tec Diagnostics) as a peroxidase substrate. The reaction was stopped by adding 50 μl of 2 M H₂SO₄ (Merck). Absorbance was measured at 450 nm using a Powerwave HT (Bio-Tek).

The target in assay [3] is unphosphorylated tau protein (UniProt P10636-8 1-441, limits assumed). As to the kind of experiment: ELISA.
Assay [4] has as its target T2, monoclonal antibody DC2E2. In words: competition ELISA, peptide 0.3-200 µM pre-incubated with DC2E2, plates coated with tau 1-242. As to the method:
as §1

T2 sequence (VL, as listed by the source): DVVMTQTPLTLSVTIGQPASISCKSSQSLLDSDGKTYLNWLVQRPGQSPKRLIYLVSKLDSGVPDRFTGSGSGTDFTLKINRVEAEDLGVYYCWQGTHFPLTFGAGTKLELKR
T1 sequence (VL, as listed by the source): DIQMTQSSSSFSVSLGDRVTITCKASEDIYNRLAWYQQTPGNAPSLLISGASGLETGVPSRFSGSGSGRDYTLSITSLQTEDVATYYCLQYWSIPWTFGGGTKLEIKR
unphosphorylated tau protein, sequence (P10636 other isoform, or with tags, fused parts or gaps limits assumed): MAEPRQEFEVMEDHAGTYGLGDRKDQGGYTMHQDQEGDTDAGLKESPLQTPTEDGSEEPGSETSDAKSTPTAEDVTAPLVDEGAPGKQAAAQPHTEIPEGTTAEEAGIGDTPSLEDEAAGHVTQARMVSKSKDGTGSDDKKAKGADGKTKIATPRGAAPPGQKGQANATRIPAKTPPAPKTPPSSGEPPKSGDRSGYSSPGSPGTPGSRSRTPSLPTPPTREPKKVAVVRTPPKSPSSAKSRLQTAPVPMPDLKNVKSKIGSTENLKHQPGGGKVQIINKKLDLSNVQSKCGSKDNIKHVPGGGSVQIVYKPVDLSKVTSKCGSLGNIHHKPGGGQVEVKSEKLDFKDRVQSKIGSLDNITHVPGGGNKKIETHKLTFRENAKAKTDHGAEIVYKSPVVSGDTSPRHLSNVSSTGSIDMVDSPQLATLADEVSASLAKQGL

B1: synthetic phosphopeptide tau 210-220/pT212/pT217 (peptide)
peptide: SR[pT]PSLP[pT]PPT
Turning to B1, in assay [1], the binding result is reported as “no binding (tested: peptide up to 200 µM)”.

B2: synthetic peptide tau 141-170 (peptide)
peptide: KAKGADGKTKIATPRGAAPPGQKGQANATR
With B2, in assay [2], the binding result is reported as “no binding (tested: peptide up to 200 µM)”.

B3: antibody DC149 (antibody, V domains shown)
VH: DVQLVESGGGLVQPGGSRKLSCAASGFTLSSFGMHWVRQAPEKGLEWVAYISSGSSTIYYADTVKGRFTISRDNPKNILFLQMTSLRSEDTAIYYCSRRLDYWGQGTSVTVS
VL: DIVITQDELSNPVTSGESVSISCRSSKSLLYKDGKTYLNWFLQRPGQSPQLLIYLMSTRASGVSDRFSGSGSGTDFTLEISRVKAEDVGVYYCQQFVEYPLTFGTGTKLELQR
notes: Mouse monoclonal antibody
Turning to B3, the binding result in assay [3] is “no binding”.

B4: antibody DC807 (antibody, V domains shown)
VH: EVKLVESGGGLVKPGGSLKLSCAASGFTFSNYAMSWVRQNPEKRLEWVASISSGGTIYSPDSVKGRFTISRDNGRNILYLQMSSLRSEDTAMYSCARVNYDYGYAMDYWGQGTSVTVS
VL: DAVMTQTPLSLPVSLGDQASISCRSSQSLENSNGNTYLNWYLQKPGQSPQLLIYRVSNRFSGVLDRFSGSGSGTDFTLKISRVEAEDLGVYFCLQVTHVPWTFGGGTKLEIKR
notes: Mouse monoclonal antibody
B4: the binding result in assay [3] was “no binding”.

B5: synthetic peptide tau 181-210 (peptide)
peptide: TPPSSGEPPKSGDRSGYSSPGSPGTPGSRS
For B5, in assay [2], the binding result is reported as “no binding (tested: peptide up to 200 µM)”.

B6: synthetic peptide tau 161-190 (peptide)
peptide: GQKGQANATRIPAKTPPAPKTPPSSGEPPK
For B6, in assay [4], the binding result is given as “binds”.

B7: synthetic peptide tau 171-200 (peptide)
peptide: IPAKTPPAPKTPPSSGEPPKSGDRSGYSSP
Turning to B7, the binding result in assay [2] is on record as “no binding (tested: peptide up to 200 µM)”.

B8: synthetic phosphopeptide tau 210-219/pT212/pT217 (peptide)
peptide: SR[pT]PSLP[pT]PP
With B8, the binding result in assay [1] is “no binding (tested: peptide up to 200 µM)”.

B9: synthetic phosphopeptide tau 210-218/pT212/pT217 (peptide)
peptide: SR[pT]PSLP[pT]P
Regarding B9, the binding result in assay [1] was “no binding (tested: peptide up to 200 µM)”.
